Measured values: IntAct's records for PubMed 22632968
Each block holds one substance with its values, some of them ahead of it.

Legend:
sun1_human SUN1 [1] = target: sun1_human SUN1 (UniProt O94901)
sun2_human SUN2 [2] = target: sun2_human SUN2 (UniProt Q9UH99)
sun2_human SUN2 [3] = target: sun2_human SUN2 (UniProt Q9UH99); remark: listed apart in the source
sun1_human SUN1 [4] = target: sun1_human SUN1 (UniProt O94901); remark: listed apart in the source
sun2_human SUN2 [5] = target: sun2_human SUN2 (UniProt Q9UH99); remark: listed apart in the source
sun2_human SUN2 [6] = target: sun2_human SUN2 (UniProt Q9UH99); remark: listed apart in the source
sun1_human SUN1 [7] = target: sun1_human SUN1 (UniProt O94901); remark: listed apart in the source

sun2_human SUN2, sequence (Q9UH99 whole entry): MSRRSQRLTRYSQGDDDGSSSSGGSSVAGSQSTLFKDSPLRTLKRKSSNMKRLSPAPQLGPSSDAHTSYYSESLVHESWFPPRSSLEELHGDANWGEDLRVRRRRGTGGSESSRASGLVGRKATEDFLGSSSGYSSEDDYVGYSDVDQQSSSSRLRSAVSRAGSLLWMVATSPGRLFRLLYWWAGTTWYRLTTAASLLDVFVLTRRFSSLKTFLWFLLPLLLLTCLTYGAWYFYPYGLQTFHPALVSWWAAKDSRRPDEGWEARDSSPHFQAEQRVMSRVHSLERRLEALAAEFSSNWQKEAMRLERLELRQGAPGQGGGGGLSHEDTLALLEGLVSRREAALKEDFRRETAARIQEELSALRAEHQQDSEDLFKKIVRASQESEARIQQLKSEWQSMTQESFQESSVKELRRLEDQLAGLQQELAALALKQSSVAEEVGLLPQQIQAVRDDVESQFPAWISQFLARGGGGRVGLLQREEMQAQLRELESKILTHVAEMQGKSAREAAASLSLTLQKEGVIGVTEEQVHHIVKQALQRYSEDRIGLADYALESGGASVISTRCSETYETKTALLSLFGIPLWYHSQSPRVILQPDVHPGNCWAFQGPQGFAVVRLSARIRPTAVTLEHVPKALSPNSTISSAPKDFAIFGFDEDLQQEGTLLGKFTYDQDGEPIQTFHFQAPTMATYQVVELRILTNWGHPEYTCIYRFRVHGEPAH
sun1_human SUN1, sequence (O94901 whole entry): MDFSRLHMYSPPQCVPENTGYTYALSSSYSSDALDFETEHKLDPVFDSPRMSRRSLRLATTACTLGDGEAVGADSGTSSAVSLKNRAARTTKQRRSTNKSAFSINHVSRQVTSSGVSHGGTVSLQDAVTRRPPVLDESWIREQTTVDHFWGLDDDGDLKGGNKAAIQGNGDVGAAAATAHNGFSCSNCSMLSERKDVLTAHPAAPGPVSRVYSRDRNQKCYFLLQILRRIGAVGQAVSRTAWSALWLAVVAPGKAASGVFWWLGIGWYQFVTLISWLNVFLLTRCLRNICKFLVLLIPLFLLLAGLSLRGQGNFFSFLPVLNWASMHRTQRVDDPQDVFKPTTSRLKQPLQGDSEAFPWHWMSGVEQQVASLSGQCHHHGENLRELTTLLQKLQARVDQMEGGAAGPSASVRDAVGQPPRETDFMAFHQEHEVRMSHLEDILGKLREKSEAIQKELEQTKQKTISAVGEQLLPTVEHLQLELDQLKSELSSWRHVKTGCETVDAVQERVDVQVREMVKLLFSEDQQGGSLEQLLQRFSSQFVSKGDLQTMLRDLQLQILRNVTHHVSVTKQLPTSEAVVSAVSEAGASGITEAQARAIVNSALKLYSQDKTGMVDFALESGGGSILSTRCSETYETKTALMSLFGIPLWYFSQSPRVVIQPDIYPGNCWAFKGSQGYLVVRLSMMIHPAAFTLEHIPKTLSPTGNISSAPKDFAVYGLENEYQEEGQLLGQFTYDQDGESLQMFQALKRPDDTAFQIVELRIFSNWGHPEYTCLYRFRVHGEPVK

Substance: Nesprin-2 (Homo sapiens), Q8WXH0 P6883A
effect of a mutation on the interaction (sun2_human SUN2 [5]): disrupting interaction strength

Substance: Nesprin-2 (Homo sapiens), Q8WXH0 Y6878A
effect of a mutation on the interaction (sun2_human SUN2 [5]): disrupting interaction strength

Substance: Nesprin-2 (Homo sapiens), Q8WXH0-1 C6862S
effect of a mutation on the interaction (sun2_human SUN2 [6]): disrupting interaction strength
effect of a mutation on the interaction (sun1_human SUN1 [7]): disrupting interaction strength

The next lines start with the values.

effect of a mutation on the interaction (sun1_human SUN1 [1]): disrupting interaction
effect of a mutation on the interaction (sun2_human SUN2 [2]): disrupting interaction strength
effect of a mutation on the interaction (sun2_human SUN2 [3]): decreasing interaction strength
effect of a mutation on the interaction (sun1_human SUN1 [4]): disrupting interaction strength
Substance: Nesprin-1 (Homo sapiens), Q8NF91-1 C8774S

effect of a mutation on the interaction (sun2_human SUN2 [5]): disrupting interaction strength
Substance: Nesprin-2 (Homo sapiens), Q8WXH0 L6876A
